Key:
[1] = molecular target: T1, human EpCAM protein (human, UniProt P16422 24-265, biotinylated in the Octet assays (site not stated)); assay: colorimetric ELISA
T1 construct: also called hu EpCAM; biotinylated human EpCAM protein
T1 sequence: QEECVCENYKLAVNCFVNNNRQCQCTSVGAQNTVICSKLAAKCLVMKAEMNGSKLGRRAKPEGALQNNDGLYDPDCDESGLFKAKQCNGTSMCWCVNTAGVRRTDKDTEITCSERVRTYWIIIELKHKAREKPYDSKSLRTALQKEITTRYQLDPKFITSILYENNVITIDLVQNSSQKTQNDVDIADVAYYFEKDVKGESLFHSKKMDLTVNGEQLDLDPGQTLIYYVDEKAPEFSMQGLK
From the text: (§1) A phage display library for expression of heavy variable antibody domains was constructed from circulating B cells. See van der Linden, de Geus, Stok, Bos, van Wassenaar, Verrips, and Frenken. 2000. J Immunol Methods 240:185-195.

[2] = molecular target: T2, cynomolgus EpCAM protein (cynomolgus, UniProt Q1WER1 27-265 (rhesus entry), limits assumed, biotinylated in the Octet assays (site not stated)); assay: colorimetric ELISA
T2 construct: also called cy EpCAM; biotinylated cynomolgus EpCAM protein
T2 sequence: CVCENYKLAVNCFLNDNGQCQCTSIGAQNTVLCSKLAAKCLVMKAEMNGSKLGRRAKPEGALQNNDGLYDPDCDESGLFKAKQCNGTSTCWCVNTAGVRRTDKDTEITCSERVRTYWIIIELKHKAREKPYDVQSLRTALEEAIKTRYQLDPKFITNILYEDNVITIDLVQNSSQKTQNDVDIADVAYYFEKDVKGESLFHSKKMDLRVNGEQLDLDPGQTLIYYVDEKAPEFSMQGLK
From the text: as §1

B1: EPL2 (VHH)
VHH: QVQLQESGGGLVQPGGSLRLSCAASESISSFIAVGWYRQAPGKERELVAGINRSGFTYYTDSVKGRFSISRDNAKNTVLLQMTSLKPEDTAVYYCNAGGLYFSNAYTQGDYWGQGTQVTVSS
- Human EpCAM/Control [1]: 15
- Cynomolgus EpCAM/Control [2]: 24

B2: EPL43 (VHH)
VHH: QVQLQESGGGLVQTGGSLRLSCAASESISSFIAVGWYRQAPGKERELVAGINRSGFTYYTDSVKGRFSISRDNAKNTVLLQMTSLKPEDTAVYYCNAGGLYFSNAYTQGDYWGQGTQVTVSS
- Human EpCAM/Control [1]: 13
- Cynomolgus EpCAM/Control [2]: 27

B3: EPL126 (VHH)
VHH: QVQLQESGGGLVQAGGSLRLSCAASGFIFRAASMGWYRQSPGNERELVATINSGGFTNYADSVKGRFTISRDNAKNTGYLQMNSLKPEDTAVYFCAATFLRSDGQPPIWGQGTQVTVSS
- Human EpCAM/Control [1]: 5
- Cynomolgus EpCAM/Control [2]: 4

B4: EPL164 (VHH)
VHH: QVQLQESGGGLVQAGGSLRLSCAASGFIFRAASMDWYRQSPGTQPELVATISSTGFTNYANSVKGRFTISRDNAKNTVYLQMNSLKPEDTAVYFCGATFLRSDGQHSIYGQGTQVTVSS
- Human EpCAM/Control [1]: 7
- Cynomolgus EpCAM/Control [2]: 34

B5: EPL90 (VHH)
VHH: QVQLQESGGGLVQAGGSLRLSCAASGFIFRAASMAWYRQSPGNERELVASISSGAFTNYADSVKARFTISRDNAKNTVYLQMNSLKPEDTAVYFCGATFLRSDGHHTINGQGTQVTVSS
notes: llama anti-EpCAM heavy chain only single domain antibody; tested as E. coli periplasmic extract
- Human EpCAM/Control [1]: 10
- Cynomolgus EpCAM/Control [2]: 10

B6: EPL118 (VHH)
VHH: QVQLQESGGGLVQAGGSLRLSCAASGFIFRAASMGWFRQSPGNERELVATVSSGDFTNYADSVKGRFTISRDNAKNTVYLQMNSLKPEDTAVYFCGATFVRSDGHHTIYGQGTQVTVSS
- Human EpCAM/Control [1]: 5
- Cynomolgus EpCAM/Control [2]: 4

B7: EPL120 (VHH)
VHH: QVQLQESGGGLVQAGGSLRLSCAASGFIFRAASISWYRQSPGNERELVATINSGGFTNYADSVLGRFTISRDNAKNTGYLQMNSLKPEDTAVYFCAATFLRSDGQPPIWGQGTQVTVSS
- Human EpCAM/Control [1]: 5
- Cynomolgus EpCAM/Control [2]: 4

B8: EPL49 (VHH)
VHH: QVQLQESGGGLVQAGGSLRLSCAPSGRTSSIFGMGWFRQAPGKEREFVASINWSGGSTSYADSVKGRFTISRDNAKNEMYLQMNSLKFEDTAVYVCAAAVLTNKPSWNFWGQGTQVTVSS
- Human EpCAM/Control [1]: 8
- Cynomolgus EpCAM/Control [2]: 4

B9: EPL83 (VHH)
VHH: QVQLQESGGGLVQAGGSLRLSCAVSGSIFSLNTLAWYRQAPGRQRDLIARITGGGTTVYADSVKGRFTISRDNAKNTVYLQMNSLKPEDTAVYYCNLMVRHPSGSTYEYWGQGTQVTVSS
- Human EpCAM/Control [1]: 3
- Cynomolgus EpCAM/Control [2]: 2

B10: EPL82 (VHH)
VHH: QVQLQESGGGLVQAGGSLKLSCTASGTILSTMAWYRQAPGKQRELVATISRGGTTNYSDSVKGRFAISRDSTKNTVYLQMNSLKPEDTAVYYCNTPLTDYGMGYNWGQGTQVTVSS
- Human EpCAM/Control [1]: 4
- Cynomolgus EpCAM/Control [2]: 5

B11: EPL117 (VHH)
VHH: QVQLQESGGGLVQAGGSLRLSCAASGNIVRMTNMAWYRQAPGKQREFVATISAGGSTTYVDSVKDRFTISRDNTKNTVYLQMNYLKPEDTAVYYCATGSILTNRGAIPGSWGHGTQVTVSS
- Human EpCAM/Control [1]: 4
- Cynomolgus EpCAM/Control [2]: 3

B12: EPL78 (VHH)
VHH: QVQLQESGGGLVQPGGSLRLSCATSANRFNINVMGWYRQAPGQQRELVATINIGGSTDYADSVKGRFTISRDNAKNTVYLQLSDLKPEDTAVYYCNVKLRVSGPTGPNVYWGQGTQVTVSS
- Human EpCAM/Control [1]: 17
- Cynomolgus EpCAM/Control [2]: 11

B13: EPL10 (VHH)
VHH: QVQLQESGGGLVQAGGSLRLSCAASGSVFRANVMGWYRQAPGKQHELVARIDPGGTTTYADPVKGRFTISRDNAKKTVYLQMNSLKPDDTAVYYCNAIILLSGGPKDYWGQGTQVTVSS
- Human EpCAM/Control [1]: 12
- Cynomolgus EpCAM/Control [2]: 9

B14: EPL97 (VHH)
VHH: QVQLQESGGGLVQAGGSLRLSCAASGIIFRGTTMGWFRQAPGKQRESVASISPLGTTSYSGSVEGRFTVSRDNAKNTLFLQMNSLKSEDTAVYYCNAIQVTNVGPRVYWGQGTQVTVSS
- Human EpCAM/Control [1]: 8
- Cynomolgus EpCAM/Control [2]: 5

B15: EPL152 (VHH)
VHH: QVQLQESGGGLVQAGGSLRLSCVHSGSIFRASTMAWYRQAPGKQRELVAQIMSGGGTNYAGSVKGRFTISRDNANNTVYLQMNSLKPEDTAVYYCNAAQITSWGPKVYWGQGTQVTVSS
- Human EpCAM/Control [1]: 4
- Cynomolgus EpCAM/Control [2]: 4

B16: EPL109 (VHH)
VHH: QVQLQESGGGLVQPGGSLRLSCASSGFTLDDYTIGWFRQAPGKEREGVSCISRRDDSTYYADSVKGRFTISRDNAKNTVDLQMISLRPEDTAVYYCAATPRSYTLRCLGKFDFQGQGTQVTVSS
- Human EpCAM/Control [1]: 5
- Cynomolgus EpCAM/Control [2]: 2

B17: EPL127 (VHH)
VHH: QVQLQESGGGLVQAGGSLRLSCAAPGFAFNDHAILWFRQAPGKEREGVSEICRDGTTYYTDSVKGRFTISSDNAKNTVYLQMNSVKTDDTAVYYCAVDRRRYYCSGNRAFSSDYYYWGQGTQVTVSS
- Human EpCAM/Control [1]: 5
- Cynomolgus EpCAM/Control [2]: 11

B18: EPL15 (VHH)
VHH: QVQLQESGGGSVLAGGSLRLSCAASGFTFSSYYMSWVRQAPGKGLEWVSGIHYTGDWTNYADSVKGRFTISRDNAKNELYLEMNNLKPEDTAVYYCARGSDKGQGTQVTVSS
- Human EpCAM/Control [1]: 8
- Cynomolgus EpCAM/Control [2]: 35

B19: EPL34 (VHH)
VHH: QVQLQESGGGSVQAGGSLRLSCAASGFTFSSYYMSWVRQAPGKGLEWVSGIHYTGDWTNYADSVKGRFTISRDNAKNELYLEMNNLKPEDTAVYYCARGSDKGQGTQVTVSS
- Human EpCAM/Control [1]: 10
- Cynomolgus EpCAM/Control [2]: 36

B20: EPL138 (VHH)
VHH: QVQLQESGGGLVQAGGSLRLSCAASGFIFRAASMDWYRQFPGNERESIATISSGGFTNYADSVKGRFTISRDNAKNTVYLQMNSLKPEDTAVYFCGATFLRSDGHHTINGQGTQVTVSS
- Human EpCAM/Control [1]: 3
- Cynomolgus EpCAM/Control [2]: 3

B21: EPL189 (VHH)
VHH: QVQLQESGGGLVQPGGSLRLSCAASGRINSINTMGWYRQAPGNQRELVAEITRGGTTNYADSVQGRYAISRDNAKNLVYLQMNSLKPEDTDVYYCNAQTFPTFSRPTGLDYWGQGTQVTVSS
- Human EpCAM/Control [1]: 12
- Cynomolgus EpCAM/Control [2]: 8

B22: EPL58 (VHH)
VHH: QVQLQESGGGLVQAGGSLRLSCAASGPIFSDTIRTMGWYRQAAGKQRELVATIASFPSRTNYVDSVKGRFTISRDIAKNTVYLQMDSLKPEDTAVYYCNVDLASIPTKTYWGQGTQVTVSS
- Human EpCAM/Control [1]: 8
- Cynomolgus EpCAM/Control [2]: 4

B23: EPL74 (VHH)
VHH: QVQLQESGGGLVQAGGSLRLSCAASGSIFGINAMGWYRQAPGKQRESVAFITIGGNTNYLDSVKGRFTISRDNAKNTVYLQMNGLKPEDTAVYYCNTNPPLILTAGGLYWGQGTQVTVSS
- Human EpCAM/Control [1]: 10
- Cynomolgus EpCAM/Control [2]: 5

B24: EPL31 (VHH)
VHH: QVQLQESGGGLVHTGGSLRLSCAASGDTFLRYAMGWFRQAPGKEREFVAAITWNGGNTDYAGSLKGRFTISRDNTKNTVYLQMNSLKPEDTAVYYCAADLTFGLASSHYQYDYWGQGTQVTVSS
- Human EpCAM/Control [1]: 7
- Cynomolgus EpCAM/Control [2]: 6

B25: EPL57 (VHH)
VHH: QVQLQESGGGLVHTGGSLRLSCAFSGDTFLRYAMGWFRQAPGKEREFVAAITWNGGNTDYADSLKGRFTISRDNTKNTVYLQMNSLRPEDTAVYYCAADLTFGLASSHYQYDYWGQGTQVTVSS
- Human EpCAM/Control [1]: 14
- Cynomolgus EpCAM/Control [2]: 27

B26: EPL136 (VHH)
VHH: QVQLQESGGGLVQPGGSLRLSCAASGDTFLRYAMGWFRQAPGKEREFVAAITWNGGNTDYAGSLKGRFTISRDNTKNTVYLQMNSLKPEDTAVYYCAADLTFGLASSHYQYDYWGQGTQVTVSS
- Human EpCAM/Control [1]: 9
- Cynomolgus EpCAM/Control [2]: 13

B27: EPL55 (VHH)
VHH: QVQLQESGGGLVQAGGSLRLSCAASGDTFLRYAMGWFRQAPGKEREFVAAITWNGGNTDYAGSLKGRFTISRDNTKNTVYLQMNSLKPEDTAVYYCAADLTFGLASSHYQYDYWGQGTQVTVSS
- Human EpCAM/Control [1]: 5
- Cynomolgus EpCAM/Control [2]: 7

— patent publication US20220267462A1 (HARPOON THERAPEUTICS, published 2022)
